PMC1885638 (Nucleic Acids Research, 2007)

Biological target: Human AP endonuclease 1 (human, UniProt P27695 1-318)
Assay: pull-down

Chain of Human AP endonuclease 1 (P27695 whole entry): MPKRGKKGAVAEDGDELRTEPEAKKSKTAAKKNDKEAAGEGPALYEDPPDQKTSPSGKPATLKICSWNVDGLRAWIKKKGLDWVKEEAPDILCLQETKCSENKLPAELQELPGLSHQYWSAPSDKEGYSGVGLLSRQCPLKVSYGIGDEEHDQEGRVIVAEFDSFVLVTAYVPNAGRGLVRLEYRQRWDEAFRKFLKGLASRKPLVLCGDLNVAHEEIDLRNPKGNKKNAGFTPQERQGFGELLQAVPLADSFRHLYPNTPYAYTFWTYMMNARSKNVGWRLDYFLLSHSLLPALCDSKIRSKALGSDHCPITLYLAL

B1: his-Hus1 (individual subunit) (natural protein, human, UniProt O60921 1-280, looked up)
chain: MKFRAKIVDGACLNHFTRISNMIAKLAKTCTLRISPDKLNFILCDKLANGGVSMWCELEQENFFNEFQMEGVSAENNEIYLELTSENLSRALKTAQNARALKIKLTNKHFPCLTVSVELLSMSSSSRIVTHDIPIKVIPRKLWKDLQEPVVPDPDVSIYLPVLKTMKSVVEKMKNISNHLVIEANLDGELNLKIETELVCVTTHFKDLGNPPLASESTHEDRNVEHMAEVHIDIRKLLQFLAGQQVNPTKALCNIVNNKMVHFDLLHEDVSLQYFIPALS
B1: binds.

B2: his-Rad1 (individual subunit) (natural protein, human, UniProt O60671 1-282, looked up)
chain: MPLLTQQIQDEDDQYSLVASLDNVRNLSTILKAIHFREHATCFATKNGIKVTVENAKCVQANAFIQAGIFQEFKVQEESVTFRINLTVLLDCLSIFGSSPMPGTLTALRMCYQGYGYPLMLFLEEGGVVTVCKINTQEPEETLDFDFCSTNVINKIILQSEGLREAFSELDMTSEVLQITMSPDKPYFRLSTFGNAGSSHLDYPKDSDLMEAFHCNQTQVNRYKISLLKPSTKALVLSCKVSIRTDNRGFLSLQYMIRNEDGQICFVEYYCCPDEEVPESES
B2: binds.
